{
  "source": "patent US20250326807A1",
  "about": "(published 2025)",
  "key": {"[1]": {"target": "T1, Recombinantly expressed fused calprotectin (His6-linker-S100A9-linker-S100A8), product code B-RCAL, BÜHLMANN … (human, UniProt P06702 1-114; P05109 1-93)", "T1 chain": "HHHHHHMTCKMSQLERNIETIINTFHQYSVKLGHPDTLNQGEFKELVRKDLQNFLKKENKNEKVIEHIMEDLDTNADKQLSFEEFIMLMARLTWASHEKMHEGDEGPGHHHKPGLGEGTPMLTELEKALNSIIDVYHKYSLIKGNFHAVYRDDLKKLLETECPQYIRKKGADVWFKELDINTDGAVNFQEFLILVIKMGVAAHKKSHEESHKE", "assay": "fluorescence polarization"}, "[2]": {"target": "F11 D-Ala", "assay": "SPR"}, "[3]": {"target": "P9 β-Ala", "assay": "SPR"}, "[4]": {"target": "F8 D-Ala", "assay": "SPR"}, "[5]": {"target": "F11 β-Ala", "assay": "SPR"}, "[6]": {"target": "Q12 D-Ala", "assay": "SPR"}, "[7]": {"target": "Y16 β-Ala", "assay": "SPR"}, "[8]": {"target": "M10 β-Ala", "assay": "SPR"}, "[9]": {"target": "Y16 D-Ala", "assay": "SPR"}, "[10]": {"target": "M10 D-Ala", "assay": "SPR"}, "[11]": {"target": "F8 β-Ala", "assay": "SPR"}, "[12]": {"target": "Q12 β-Ala", "assay": "SPR"}, "[13]": {"target": "P9 D-Ala", "assay": "SPR"}, "[14]": {"target": "T1, Recombinantly expressed fused …", "assay": "fluorescence polarization"}, "[15]": {"target": "T1, Recombinantly expressed fused …"}, "[16]": {"target": "T1, Recombinantly expressed fused …", "assay": "fluorescence polarization"}, "[17]": {"target": "T1, Recombinantly expressed fused …", "assay": "fluorescence polarization"}, "[18]": {"target": "T1, Recombinantly expressed fused …", "assay": "fluorescence polarization"}},
  "note": "Like-named read-outs stand apart in the source and are kept apart here. Ends that are not written are not given here.",
  "data": [
    {"binder": "SCQCPWDLFSQHSLSDCCD (not fully specified; cross-linked between cysteines (linker not named); N-terminal 5(6)-carboxyfluorescein; synthesised on rink amide AM resin)", "values": [
      {"measurement": "Kd", "setting": "[1]", "result": 25, "unit": "nM"}
    ]},
    {"binder": "calprotectin (other) HHHHHHMTCKMSQLERNIETIINTFHQYSVKLGHPDTLNQGEFKELVRKDLQNFLKKENKNEKVIEHIMEDLDTNADKQLSFEEFIMLMARLTWASHEKMHEGDEGPGHHHKPGLGEGTPMLTELEKALNSIIDVYHKYSLIKGNFHAVYRDDLKKLLETECPQYIRKKGADVWFKELDINTDGAVNFQEFLILVIKMGVAAHKKSHEESHKE", "values": [
      {"measurement": "Kd", "setting": "[2]", "result": "> 10000", "unit": "nM"},
      {"measurement": "Kd", "setting": "[3]", "result": "> 10000", "unit": "nM"},
      {"measurement": "Kd", "setting": "[4]", "result": "> 10000", "unit": "nM"},
      {"measurement": "Kd", "setting": "[5]", "result": "> 10000", "unit": "nM"},
      {"measurement": "Kd", "setting": "[6]", "result": "> 10000", "unit": "nM"},
      {"measurement": "Kd", "setting": "[7]", "result": "> 10000", "unit": "nM"},
      {"measurement": "Kd", "setting": "[8]", "result": "> 10000", "unit": "nM"},
      {"measurement": "Kd", "setting": "[9]", "result": "> 10000", "unit": "nM"},
      {"measurement": "Kd", "setting": "[10]", "result": "> 10000", "unit": "nM"},
      {"measurement": "Kd", "setting": "[11]", "result": "> 10000", "unit": "nM"},
      {"measurement": "Kd", "setting": "[12]", "result": "> 10000", "unit": "nM"},
      {"measurement": "Kd", "setting": "[13]", "result": "> 10000", "unit": "nM"}
    ]},
    {"binder": "TCPLNRTQCPLYACTTCP (not fully specified; cross-linked between cysteines (linker not named); N-terminal 5(6)-carboxyfluorescein; synthesised on rink amide AM resin)", "values": [
      {"measurement": "Kd", "setting": "[14]", "result": 34, "unit": "nM"}
    ]},
    {"binder": "VCQQTASRCPVWECQRCP (not fully specified; cross-linked between cysteines (linker not named); N-terminal 5(6)-carboxyfluorescein; synthesised on rink amide AM resin)", "values": [
      {"measurement": "Kd", "setting": "[14]", "result": 55, "unit": "nM"}
    ]},
    {"binder": "GCDLAHQPCPLYKCTKCP (not fully specified; cross-linked between cysteines (linker not named); N-terminal 5(6)-carboxyfluorescein; synthesised on rink amide AM resin)", "values": [
      {"measurement": "Kd", "setting": "[1]", "result": 10, "unit": "nM"}
    ]},
    {"binder": "RSPESVAFPMFQSHWYSG-NH2 (also: N-terminal 5(6)-carboxyfluorescein only in the fluorescence polarization assay version)", "note": "[Linear peptide 3 (RSPESVAFPMFQSHWYSG), all cysteines replaced by serines]", "values": [
      {"measurement": "Kd", "setting": "[15]", "result": 25.5, "unit": "nM"}
    ]},
    {"binder": "RCPECVAFPMFQCHWYCG (not fully specified; cysteines cross-linked by a chemical linker (linker and isomer not named); N-terminal 5(6)-carboxyfluorescein; synthesised on rink amide AM resin)", "note": "[Peptide 3 (RCPECVAFPMFQCHWYCG), phage display derived, cross-linked between cysteines]", "values": [
      {"measurement": "Kd", "setting": "[16]", "result": 23, "unit": "nM"}
    ]},
    {"binder": "VCPCPLFRAHGCSRFSCQ (not fully specified; cross-linked between cysteines (linker not named); N-terminal 5(6)-carboxyfluorescein; synthesised on rink amide AM resin)", "values": [
      {"measurement": "Kd", "setting": "[17]", "result": 22, "unit": "nM"}
    ]},
    {"binder": "CTQSPCPLYDSHQCSCK (not fully specified; cross-linked between cysteines (linker not named); N-terminal 5(6)-carboxyfluorescein; synthesised on rink amide AM resin)", "values": [
      {"measurement": "Kd", "setting": "[17]", "result": 38, "unit": "nM"}
    ]},
    {"binder": "ACRTCPLFTCPSCG (not fully specified; cross-linked between cysteines (linker not named); N-terminal 5(6)-carboxyfluorescein; synthesised on rink amide AM resin)", "values": [
      {"measurement": "Kd", "setting": "[18]", "result": 89, "unit": "nM"}
    ]}
  ]
}
